Experimental data: patent publication US20240076386A1 (Pfizer, published 2024)

Legend:
[1] = biological target: T1, mouse E-selectin extracellular domain with 10 His purification tail (mouse, UniProt Q00690 22-557); experiment: SPR, antibody captured, E-selectin analyte
T1 construct: also called soluable mouse E-selectin extracellular domain; muE-Selctin
T1 sequence: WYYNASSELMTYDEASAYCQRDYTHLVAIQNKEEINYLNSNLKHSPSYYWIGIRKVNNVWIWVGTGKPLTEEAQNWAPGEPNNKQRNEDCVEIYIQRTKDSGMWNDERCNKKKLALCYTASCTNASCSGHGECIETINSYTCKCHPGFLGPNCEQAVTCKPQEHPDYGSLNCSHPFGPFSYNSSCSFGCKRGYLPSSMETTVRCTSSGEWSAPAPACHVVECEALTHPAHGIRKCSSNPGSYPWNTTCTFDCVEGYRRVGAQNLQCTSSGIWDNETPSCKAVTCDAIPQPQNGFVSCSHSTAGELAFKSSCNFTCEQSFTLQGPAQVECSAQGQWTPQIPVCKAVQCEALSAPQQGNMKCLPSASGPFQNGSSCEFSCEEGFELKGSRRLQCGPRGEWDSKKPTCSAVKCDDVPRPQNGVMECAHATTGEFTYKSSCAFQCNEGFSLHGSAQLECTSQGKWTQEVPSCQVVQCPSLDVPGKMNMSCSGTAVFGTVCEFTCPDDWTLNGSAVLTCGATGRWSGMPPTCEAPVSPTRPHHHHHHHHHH
Experimental: To characterize binding of antibodies to human, cynomolgus monkey, and mouse E-selectin, an antibody was diluted to 0.5 μg/mL in HBS-EP+ and captured by the anti-human IgG immobilized on flow cells 2, 3 and 4 for 30 seconds to 1 minute at a flow rate of 10 μL/minute to achieve a capture level of 70 to 300 RU. Flow cell 1 was used as a reference surface. […] HBS-EP+ buffer cycles collected for each captured antibody were used for double-referencing (Myszka D G. J. Mol. Recognition 1999; 12(5):279-84). At the end of each cycle, the entire anti-IgG surface was regenerated by a 30 second pulse of 3 M MgCl₂ and a 30 second pulse of ionic buffer (1.83 M MgCl₂, 0.92 M Urea, 1.83 M Guanidine HCl, pH 7.4) (Andersson K. Analy. Chem. 1999; 71(13): 2475-81). Kinetic assays were conducted at 25° C. at a collection rate of 10 Hertz (Hz) on a BIAcore™ T200 instrument (GE Healthcare). Rate constants and affinities were determined by fitting the data to a 1:1 binding model in BIAcore™ T200 Evaluation software version 3.0 (GE Healthcare).

[2] = biological target: T1, mouse E-selectin extracellular domain …; experiment: antigen binding ELISA, HRP detection
Experimental: 384-well Maxisorp plates were used to capture the human and mouse His-tagged recombinant E-selectin polypeptides. The polypeptides were incubated with chimeric antibodies of varying concentrations and detected with HRP-labeled anti-human IgG1 antibodies.

[3] = biological target: T1, mouse E-selectin extracellular domain …; experiment: AlphaLISA competition vs sialyl Lewis A-PAA-biotin
Experimental: The neutralization ability of anti-E-selectin antibodies was measured in an AlphaLISA homogenous competition assay. […] This was incubated at room temperature for 15 minutes, followed by addition of 1.4 μL of human, mouse or cynomolgus monkey E-selectin added to a final concentration of 7 nM. This was again incubated at room temperature for 15 minutes. To this, 1.4 μL AlphaLISA beads was added (Ni-donor/SA-acceptor) for a final assay concentration of 10 μg/mL. This was incubated in the dark at room temperate for at least 10 hours. The plates were then read using the AlphaLISA protocol (Envision).

B1: anti-E-selectin antibody 0027 chimera (antibody, human IgG1, kappa, V domains shown)
VH: EVHLHQSGPELGRPGSSVKISCKASGYTFTDYVMNWVRQSPGQGLEWIGWINPEDYSFDSGEKFLERATLTAATSSNTVYIQLSGLTSDDTATYFCVRGGLPGDWFAYWGQGTLVTVSS
VL: DIQMTQSPSFLSASVGDRITINCKTSQNINRYLNWFQQKLGEPPKLLIYNANSLQADIPSRFSGSGSGTDFTLTITSLQPEDVATYFCLQHHFWPYTFGAGTKLELRR
notes: rat VH/VL on effector-null human IgG1 (L234A, L235A, G237A, EU) and human kappa; directed to mouse E-selectin
**Q.** For B1, which Kd [1] is on record?
**A.** 1.2 nM

**Q.** What about the koff [1] of the same binder?
**A.** 0.000231 s⁻¹

**Q.** And the kon [1]?
**A.** 192000 M⁻¹ s⁻¹

**Q.** And the t½ [1]?
**A.** 50.2 min

**Q.** What about the EC50 [2] of the same binder?
**A.** 0.02 nM

**Q.** What about the EC50 [3] of the same binder?
**A.** 1 nM
